Test results published in the supplement of paper PMC5998384.

Tests used:
[1] = system: HeLa Kyoto; assay: thermal stability score vs G1/S (z-score of summed log2 fold changes over temperatures); higher = more thermally stable than in G1/S
[2] = system: HeLa Kyoto; assay: melting temperature (median over replicates), in situ; higher = more thermally stable
[3] = system: HeLa Kyoto; assay: solubility in G1/S (NP-40 vs SDS abundance) (log2 ratio); higher = more soluble; settings: cell cycle stage: G1/S
[4] = system: HeLa Kyoto; assay: solubility change mitosis vs G1/S (difference of NP-40 vs SDS log2 ratios) (log2 ratio difference); higher = more soluble in mitosis
[5] = cell cycle stage: early G1 (4.5 h after nocodazole release)
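Wherever melting temperature (median over replicates), in situ is given: HeLa Kyoto cells synchronized by double thymidine or nocodazole block, proteins quantified by TMT10plex mass spectrometry, three independent biological replicates.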
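Wherever solubility change mitosis vs G1/S (difference of NP-40 vs SDS log2 ratios) is given: synchronized HeLa Kyoto cells (double thymidine block for G1/S, nocodazole release for mitosis), protein amounts in NP-40 versus SDS lysates quantified by mass spectrometry, three biological replicates.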
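Wherever solubility in G1/S (NP-40 vs SDS abundance) is given: HeLa Kyoto cells arrested at G1/S by double thymidine block, proteins quantified by TMT10plex mass spectrometry in mild NP-40 versus SDS extracts, three biological replicates.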
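Wherever thermal stability score vs G1/S (z-score of summed log2 fold changes over temperatures) is given: synchronized HeLa Kyoto cells, proteins quantified by TMT10plex mass spectrometry, three biological replicates, mitosis taken 0.5 h after nocodazole release, G1/S directly after double thymidine block.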

Question: Which results are given for “MLKQILSEMYIDPDLLAELSEEQKQILFFKMREEQIRRWKEREAAMERKESLPVKPRPKKENGKSVHWKLGADKEVWVWVMGEHHLDKPYDVLCNEIIAERARLKAEQEAEEPRKTHSEEFTNSLKTKSQYHDLQAPDNQQTKDIWKKVAEKEELEQGSRPAPTLEEEKIRSLSSSSRNIQQMLADSINRMKAYAFHQKKESMKKKQDEEINQIEEERTKQICKSWKEDSEWQASLRKSKAADEKRRSLAKQAREDYKRLSLGAQKGRGGERLQSPLRVPQKPERPPLPPKPQFLNSGAYPQKPLRNQGVVRTLSSSAQEDIIRWFKEEQLPLRAGYQKTSDTIAPWFHGILTLKKANELLLSTGMPGSFLIRVSERIKGYALSYLSEDGCKHFLIDASADAYSFLGVDQLQHATLADLVEYHKEEPITSLGKELLLYPCGQQDQLPDYLELFE [SH2D4A]”?
Answer: thermal stability score [1, 5]: -0.202; thermal stability score ([1]; cell cycle stage: mitosis): 0.42; melting temperature ([2]; cell cycle stage: G1/S): 49 °C; melting temperature ([2]; cell cycle stage: mitosis): 49.5 °C; solubility in G1/S (log2) [3]: 0.308; solubility change mitosis (log2) [4]: -0.0397

Question: Which thermal stability score [1, 5] does the source give for “MLKSKTFLKKTRAGGVMKIVREHYLRDDIGCGAPGCAACGGAHEGPALEPQPQDPASSVCPQPHYLLPDTNVLLHQIDVLEDPAIRNVIVLQTVLQEVRNRSAPVYKRIRDVTNNQEKHFYTFTNEHHRETYVEQEQGENANDRNDRAIRVAAKWYNEHLKKMSADNQLQVIFITNDRRNKEKAIEEGIPAFTCEEYVKSLTANPELIDRLACLSEEGNEIESGKIIFSEHLPLSKLQQGIKSGTYLQGTFRASRENYLEATVWIHGDNEENKEIILQGLKHLNRAVHEDIVAVELLPKSQWVAPSSVVLHDEGQNEEDVEKEEETERMLKTAVSEKMLKPTGRVVGIIKRNWRPYCGMLSKSDIKESRRHLFTPADKRIPRIRIETRQASTLEGRRIIVAIDGWPRNSRYPNGHFVRNLGDVGEKETETEVLLLEHDVPHQPFSQAVLSFLPKMPWSITEKDMKNREDLRHLCICSVDPPGCTDIDDALHCRELENGNLEVGVHIADVSHFIRPGNALDQESARRGTTVYLCEKRIDMVPELLSSNLCSLKCDVDRLAFSCIWEMNHNAEILKTKFTKSVINSKASLTYAEAQLRIDSANMNDDITTSLRGLNKLAKILKKRRIEKGALTLSSPEVRFHMDSETHDPIDLQTKELRETNSMVEEFMLLANISVAKKIHEEFSEHALLRKHPAPPPSNYEILVKAARSRNLEIKTDTAKSLAESLDQAESPTFPYLNTLLRILATRCMMQAVYFCSGMDNDFHHYGLASPIYTHFTSPIRRYADVIVHRLLAVAIGADCTYPELTDKHKLADICKNLNFRHKMAQYAQRASVAFHTQLFFKSKGIVSEEAYILFVRKNAIVVLIPKYGLEGTVFFEEKDKPNPQLIYDDEIPSLKIEDTVFHVFDKVKVKIMLDSSNLQHQKIRMSLVEPQIPGISIPTDTSNMDLNGPKKKKMKLGK [DIS3]” here?
Answer: 1.5

Question: And the thermal stability score ([1]; cell cycle stage: mitosis)?
Answer: 3.37

Question: What about the melting temperature ([2]; cell cycle stage: G1/S) of the same substance?
Answer: 47.9 °C

Question: What about the melting temperature ([2]; cell cycle stage: mitosis) of the same substance?
Answer: 49.2 °C

Question: What about the “solubility in G1/S (log2)” value [3] of the same substance?
Answer: -0.0366

Question: And the “solubility change mitosis (log2)” value [4]?
Answer: -0.0946

Question: With “MLLLAAAFLVAFVLLLYMVSPLISPKPLALPGAHVVVTGGSSGIGKCIAIECYKQGAFITLVARNEDKLLQAKKEIEMHSINDKQVVLCISVDVSQDYNQVENVIKQAQEKLGPVDMLVNCAGMAVSGKFEDLEVSTFERLMSINYLGSVYPSRAVITTMKERRVGRIVFVSSQAGQLGLFGFTAYSASKFAIRGLAEALQMEVKPYNVYITVAYPPDTDTPGFAEENRTKPLETRLISETTSVCKPEQVAKQIVKDAIQGNFNSSLGSDGYMLSALTCGMAPVTSITEGLQQVVTMGLFRTIALFYLGSFDSIVRRCMMQREKSENADKTA [KDSR]” as the substance, how does the thermal stability score [1, 5] read?
Answer: -2.49

Question: What about the thermal stability score ([1]; cell cycle stage: mitosis) of the same substance?
Answer: -3.38

Question: What about the melting temperature ([2]; cell cycle stage: G1/S) of the same substance?
Answer: 60 °C

Question: And the melting temperature ([2]; cell cycle stage: mitosis)?
Answer: 57.9 °C

Question: What about the “solubility in G1/S (log2)” value [3] of the same substance?
Answer: -0.701

Question: What about the “solubility change mitosis (log2)” value [4] of the same substance?
Answer: -0.0925

Question: Which results are given for “MLLPLLLLLPMCWAVEVKRPRGVSLTNHHFYDESKPFTCLDGSATIPFDQVNDDYCDCKDGSDEPGTAACPNGSFHCTNTGYKPLYIPSNRVNDGVCDCCDGTDEYNSGVICENTCKEKGRKERESLQQMAEVTREGFRLKKILIEDWKKAREEKQKKLIELQAGKKSLEDQVEMLRTVKEEAEKPEREAKEQHQKLWEEQLAAAKAQQEQELAADAFKELDDDMDGTVSVTELQTHPELDTDGDGALSEAEAQALLSGDTQTDATSFYDRVWAAIRDKYRSEALPTDLPAPSAPDLTEPKEEQPPVPSSPTEEEEEEEEEEEEEAEEEEEEEDSEEAPPPLSPPQPASPAEEDKMPPYDEQTQAFIDAAQEARNKFEEAERSLKDMEESIRNLEQEISFDFGPNGEFAYLYSQCYELTTNEYVYRLCPFKLVSQKPKLGGSPTSLGTWGSWIGPDHDKFSAMKYEQGTGCWQGPNRSTTVRLLCGKETMVTSTTEPSRCEYLMELMTPAACPEPPPEAPTEDDHDEL [PRKCSH]”?
Answer: thermal stability score [1, 5]: 0.00878; thermal stability score ([1]; cell cycle stage: mitosis): 0.443; melting temperature ([2]; cell cycle stage: G1/S): 55 °C; melting temperature ([2]; cell cycle stage: mitosis): 57.4 °C; solubility in G1/S (log2) [3]: 0.337; solubility change mitosis (log2) [4]: -0.0303

Question: What does the source list for “MLLSLVLHTYSMRYLLPSVVLLGTAPTYVLAWGVWRLLSAFLPARFYQALDDRLYCVYQSMVLFFFENYTGVQILLYGDLPKNKENIIYLANHQSTVDWIVADILAIRQNALGHVRYVLKEGLKWLPLYGCYFAQHGGIYVKRSAKFNEKEMRNKLQSYVDAGTPMYLVIFPEGTRYNPEQTKVLSASQAFAAQRGLAVLKHVLTPRIKATHVAFDCMKNYLDAIYDVTVVYEGKDDGGQRRESPTMTEFLCKECPKIHIHIDRIDKKDVPEEQEHMRRWLHERFEIKDKMLIEFYESPDPERRKRFPGKSVNSKLSIKKTLPSMLILSGLTAGMLMTDAGRKLYVNTWIYGTLLGCLWVTIKA [AGPAT5]”?
Answer: thermal stability score [1, 5]: 0.0279; thermal stability score ([1]; cell cycle stage: mitosis): -1.01; melting temperature ([2]; cell cycle stage: G1/S): 52.1 °C; melting temperature ([2]; cell cycle stage: mitosis): 52.6 °C; solubility in G1/S (log2) [3]: -0.125; solubility change mitosis (log2) [4]: -0.0679

Question: Which results are given for MLLT4?
Answer: thermal stability score [1, 5]: -0.182; thermal stability score ([1]; cell cycle stage: mitosis): -0.125; melting temperature ([2]; cell cycle stage: G1/S): 50.9 °C; melting temperature ([2]; cell cycle stage: mitosis): 50.3 °C; solubility in G1/S (log2) [3]: -0.184; solubility change mitosis (log2) [4]: 0.00908

Question: “MLPAALLRRPGLGRLVRHARAYAEAAAAPAAASGPNQMSFTFASPTQVFFNGANVRQVDVPTLTGAFGILAAHVPTLQVLRPGLVVVHAEDGTTSKYFVSSGSIAVNADSSVQLLAEEAVTLDMLDLGAAKANLEKAQAELVGTADEATRAEIQIRIEANEALVKALE [ATP5D]” was tested. Which thermal stability score [1, 5] did it give?
Answer: -2.35

Question: What about the thermal stability score ([1]; cell cycle stage: mitosis) of the same substance?
Answer: -1.13

Question: What about the melting temperature ([2]; cell cycle stage: G1/S) of the same substance?
Answer: 55.7 °C

Question: And the melting temperature ([2]; cell cycle stage: mitosis)?
Answer: 54.5 °C

Question: What about the “solubility in G1/S (log2)” value [3] of the same substance?
Answer: 0.603

Question: What about the “solubility change mitosis (log2)” value [4] of the same substance?
Answer: -0.0082

Question: How did the thermal stability score [1, 5] turn out when “MLPLLRCVPRVLGSSVAGLRAAAPASPFRQLLQPAPRLCTRPFGLLSVRAGSERRPGLLRPRGPCACGCGCGSLHTDGDKAFVDFLSDEIKEERKIQKHKTLPKMSGGWELELNGTEAKLVRKVAGEKITVTFNINNSIPPTFDGEEEPSQGQKVEEQEPELTSTPNFVVEVIKNDDGKKALVLDCHYPEDEVGQEDEAESDIFSIREVSFQSTGESEWKDTNYTLNTDSLDWALYDHLMDFLADRGVDNTFADELVELSTALEHQEYITFLEDLKSFVKSQ [C1QBP]” was run?
Answer: -1.11

Question: And the thermal stability score ([1]; cell cycle stage: mitosis)?
Answer: -3.14

Question: What about the melting temperature ([2]; cell cycle stage: G1/S) of the same substance?
Answer: 52.6 °C

Question: And the melting temperature ([2]; cell cycle stage: mitosis)?
Answer: 52 °C

Question: What about the “solubility in G1/S (log2)” value [3] of the same substance?
Answer: 0.515

Question: And the “solubility change mitosis (log2)” value [4]?
Answer: 0.179

Question: Which results are given for “MLPLSLLKTAQNHPMLVELKNGETYNGHLVSCDNWMNINLREVICTSRDGDKFWRMPECYIRGSTIKYLRIPDEIIDMVKEEVVAKGRGRGGLQQQKQQKGRGMGGAGRGVFGGRGRGGIPGTGRGQPEKKPGRQAGKQ [LSM4]”?
Answer: thermal stability score [1, 5]: -3.84; thermal stability score ([1]; cell cycle stage: mitosis): -4.06; melting temperature ([2]; cell cycle stage: G1/S): 58.1 °C; melting temperature ([2]; cell cycle stage: mitosis): 54.6 °C; solubility in G1/S (log2) [3]: 0.0844; solubility change mitosis (log2) [4]: 0.187

Question: Which thermal stability score [1, 5] does the source give for “MLQTLYDYFWWERLWLPVNLTWADLEDRDGRVYAKASDLYITLPLALLFLIVRYFFELYVATPLAALLNIKEKTRLRAPPNATLEHFYLTSGKQPKQVEVELLSRQSGLSGRQVERWFRRRRNQDRPSLLKKFREASWRFTFYLIAFIAGMAVIVDKPWFYDMKKVWEGYPIQSTIPSQYWYYMIELSFYWSLLFSIASDVKRKDFKEQIIHHVATIILISFSWFANYIRAGTLIMALHDSSDYLLESAKMFNYAGWKNTCNNIFIVFAIVFIITRLVILPFWILHCTLVYPLELYPAFFGYYFFNSMMGVLQLLHIFWAYLILRMAHKFITGKLVEDERSDREETESSEGEEAAAGGGAKSRPLANGHPILNNNHRKND [CERS2]” here?
Answer: -0.502

Question: What about the thermal stability score ([1]; cell cycle stage: mitosis) of the same substance?
Answer: -0.489

Question: What about the melting temperature ([2]; cell cycle stage: G1/S) of the same substance?
Answer: 52.7 °C

Question: What about the melting temperature ([2]; cell cycle stage: mitosis) of the same substance?
Answer: 52.9 °C

Question: And the “solubility in G1/S (log2)” value [3]?
Answer: 0.0784

Question: And the “solubility change mitosis (log2)” value [4]?
Answer: -0.158

Question: How did the thermal stability score [1, 5] turn out when “MLRAPGCLLRTSVAPAAALAAALLSSLARCSLLEPRDPVASSLSPYFGTKTRYEDVNPVLLSGPEAPWRDPELLEGTCTPVQLVALIRHGTRYPTVKQIRKLRQLHGLLQARGSRDGGASSTGSRDLGAALADWPLWYADWMDGQLVEKGRQDMRQLALRLASLFPALFSRENYGRLRLITSSKHRCMDSSAAFLQGLWQHYHPGLPPPDVADMEFGPPTVNDKLMRFFDHCEKFLTEVEKNATALYHVEAFKTGPEMQNILKKVAATLQVPVNDLNADLIQVAFFTCSFDLAIKGVKSPWCDVFDIDDAKVLEYLNDLKQYWKRGYGYTINSRSSCTLFQDIFQHLDKAVEQKQRSQPISSPVILQFGHAETLLPLLSLMGYFKDKEPLTAYNYKKQMHRKFRSGLIVPYASNLIFVLYHCENAKTPKEQFRVQMLLNEKVLPLAYSQETVSFYEDLKNHYKDILQSCQTSEECELARANSTSDEL [MINPP1]” was run?
Answer: 4.83

Question: What about the thermal stability score ([1]; cell cycle stage: mitosis) of the same substance?
Answer: 4.74

Question: And the melting temperature ([2]; cell cycle stage: G1/S)?
Answer: 54.4 °C

Question: What about the melting temperature ([2]; cell cycle stage: mitosis) of the same substance?
Answer: 55.7 °C

Question: And the “solubility in G1/S (log2)” value [3]?
Answer: 0.459

Question: And the “solubility change mitosis (log2)” value [4]?
Answer: -0.069
